Source: patent publication US20130052176, “APTAMER FOR NGF AND USE THEREOF” (SHIONOGI & CO., LTD, published 2013)

What was measured:
[1] = target: T1, NGF (nerve growth factor) (human, UniProt P01138 P01138:122-241); assay: cell_activity; neurite outgrowth, NGF 1.1 nM; TF-1 IC50 1.2 nM; conditions: tags: human NGF; chain copies: 2
Method: (§1) The neurite outgrowth inhibitory activity of the aptamer obtained in Example 1 was evaluated by using Neuroscreen-1 cell, which is a subclone of PC-12 cells.
(§2) The cells (2500 cells per well) were cultured for one day in an RPMI-1640 medium containing 2.5% horse serum and 1.25% fetal bovine serum in a 96 well flat-bottom plate coated with collagen type IV. […] Two days later, the cytoplasm and nuclei were stained using Cellomics Neurite Outgrowth Kit (manufactured by Thermo Scientific), and neurite length per cell was measured by Cellomics ArrayScan VTI (manufactured by Thermo Scientific). With the neurite length per cell obtained by the addition of NGF alone as inhibitory activity 0%, and that of the cell obtained by NGF free culture for 2 days as inhibitory activity 100%, the inhibitory activity of the aptamer was calculated from the neurite length per cell obtained by culturing with the addition of NGF and the aptamer in mixture. When the inhibitory activity was 0% or below, ‘0%’ is indicated.

[2] = target: T1, NGF (nerve growth factor); assay: cell_activity; neurite outgrowth, NGF 1.1 nM; TF-1 IC50 1.5 nM; conditions: tags: human NGF; chain copies: 2
Method: as §1, §2

[3] = target: T1, NGF (nerve growth factor); assay: cell_activity; neurite outgrowth, NGF 1.1 nM; TF-1 IC50 1.7 nM; conditions: tags: human NGF; chain copies: 2
Method: as §1, §2

[4] = target: T1, NGF (nerve growth factor); assay: cell_activity; neurite outgrowth, NGF 1.1 nM; TF-1 IC50 7.0 nM; conditions: tags: human NGF; chain copies: 2
Method: as §1, §2

[5] = target: T1, NGF (nerve growth factor); assay: cell_activity; neurite outgrowth, NGF 1.1 nM; TF-1 IC50 4.2 nM; conditions: tags: human NGF; chain copies: 2
Method: as §1, §2

[6] = target: T1, NGF (nerve growth factor); assay: cell_activity; neurite outgrowth, NGF 0.38 nM; TF-1 IC50 0.285 nM; conditions: tags: human NGF; chain copies: 2
Method: as §1, §2

[7] = target: T1, NGF (nerve growth factor); assay: cell_activity; neurite outgrowth, NGF 0.38 nM; TF-1 IC50 0.184 nM; conditions: tags: human NGF; chain copies: 2
Method: as §1, §2

[8] = target: T1, NGF (nerve growth factor); assay: cell_activity; neurite outgrowth, NGF 0.38 nM; TF-1 IC50 0.156 nM; conditions: tags: human NGF; chain copies: 2
Method: as §1, §2

[9] = target: T1, NGF (nerve growth factor); assay: cell_activity; neurite outgrowth, NGF 0.38 nM; TF-1 IC50 0.158 nM; conditions: tags: human NGF; chain copies: 2
Method: as §1, §2

[10] = target: T1, NGF (nerve growth factor); assay: cell_activity; neurite outgrowth, NGF 0.38 nM; TF-1 IC50 0.177 nM; conditions: tags: human NGF; chain copies: 2
Method: as §1, §2

BDNF = target: T2, BDNF (human, UniProt P23560 P23560:129-247); assay: cell_activity; TF-1 TrkB/p75 proliferation; SPR showed very fast dissociation; conditions: tags: R&D Systems; chain copies: 2
T2 sequence: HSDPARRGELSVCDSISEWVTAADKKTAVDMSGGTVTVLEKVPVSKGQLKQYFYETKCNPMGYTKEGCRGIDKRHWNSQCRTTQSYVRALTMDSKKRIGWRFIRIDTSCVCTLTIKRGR
Method: (§3) The physiological inhibitory activity of the aptamers represented by aptamer IDs: 26(2), 52, 63-65 against BDNF, NT-3, NT-4/5 was evaluated by a growth inhibition assay using TF-1 cells.
(§4) Human receptor genes (TrkB, TrkC, p75) for respective neurotrophic factors were introduced into TF-1 cells (ATCC Number:CRL-2003), which is a human erythroleukemic cell line, by using a retrovirus vector to give cells that highly express these receptors stably. TF-1 cells introduced with TrkB and p75 were used for the evaluation of inhibitory activity against BDNF, TF-1 cells introduced with TrkC and p75 were used for the evaluation against NT-3, and TF-1 cells introduced with TrkB alone were used for the evaluation against NT-4/5. These cells were suspended in an RPMI-1640 medium containing 20% fetal bovine serum, and seeded in a white 96 well flat-bottom plate at 1000 cells (50 μL) per well. […] With the amount of luminescence per well obtained by the addition of BDNF or NT-3 or NT-4/5 alone and culture of the cells for 3 days as inhibitory activity 0%, and that of the cell obtained by culture for 3 days without addition of BDNF or NT3 or NT-4/5 as inhibitory activity 100%, the inhibitory activity of the aptamer was calculated from the amount of luminescence per well obtained by culturing with the addition of BDNF or NT3 or NT-4/5 and the aptamer in mixture. […]

NT-4/5 = target: T3, NT-4/5 (human, UniProt P34130 P34130:81-210); assay: cell_activity; TF-1 TrkB proliferation; SPR showed very fast dissociation; conditions: tags: R&D Systems; chain copies: 2
T3 sequence: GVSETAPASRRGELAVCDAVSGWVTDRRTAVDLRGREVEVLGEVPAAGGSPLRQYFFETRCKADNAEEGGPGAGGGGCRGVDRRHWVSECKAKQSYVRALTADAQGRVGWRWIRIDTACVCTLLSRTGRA
Method: as §3, §4

[11] = target: T1, NGF (nerve growth factor); assay: cell_activity; neurite outgrowth, NGF 0.38 nM; TF-1 IC50 0.319 nM; conditions: tags: human NGF; chain copies: 2
Method: as §1, §2

[12] = target: T1, NGF (nerve growth factor); assay: cell_activity; neurite outgrowth, NGF 0.38 nM; TF-1 IC50 0.159 nM; conditions: tags: human NGF; chain copies: 2
Method: as §1, §2

[13] = target: T1, NGF (nerve growth factor); assay: cell_activity; neurite outgrowth, NGF 0.38 nM; TF-1 IC50 0.203 nM; conditions: tags: human NGF; chain copies: 2
Method: as §1, §2

[14] = target: T1, NGF (nerve growth factor); assay: cell_activity; neurite outgrowth, NGF 0.38 nM; TF-1 IC50 0.131 nM; conditions: tags: human NGF; chain copies: 2
Method: as §1, §2

T1 sequence (P01138 122-241, one chain of several): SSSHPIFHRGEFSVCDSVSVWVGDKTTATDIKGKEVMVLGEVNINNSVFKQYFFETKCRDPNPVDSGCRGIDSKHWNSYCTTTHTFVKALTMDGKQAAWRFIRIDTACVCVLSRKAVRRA

B1: aptamer ID 57(1) (mixed)
mixed: GGGAUAAAAAUAGAGTUUGATAAACACCUGUAUUAAAACCC
modifications: as ID 57 (5' cholesterol; 3' idT; dT16,dT21; 2'-F other pyrimidines and a37,a38; 2'-OMe purines except ribo a4,a7,g30) plus PS between 15 and 16
Question: B1 was tested. Which IC50 [1] did it give?
Answer: < 3 nM

B2: aptamer ID 57(3) (mixed)
mixed: GGGAUAAAAAUAGAGTUUGATAAACACCUGUAUUAAAACCC
modifications: as ID 57 (5' cholesterol; 3' idT; dT16,dT21; 2'-F other pyrimidines and a37,a38; 2'-OMe purines except ribo a4,a7,g30) plus PS between 19 and 20
Question: With B2 as the binder, how does the IC50 [2] read?
Answer: < 3 nM

B3: aptamer ID 57(5) (mixed)
mixed: GGGAUAAAAAUAGAGTUUGATAAACACCUGUAUUAAAACCC
modifications: as ID 57 (5' cholesterol; 3' idT; dT16,dT21; 2'-F other pyrimidines and a37,a38; 2'-OMe purines except ribo a4,a7,g30) plus PS between 21 and 22
Question: Which IC50 [3] does the source give for B3 here?
Answer: < 3 nM

B4: aptamer ID 57(9) (mixed)
mixed: GGGAUAAAAAUAGAGTUUGATAAACACCUGUAUUAAAACCC
modifications: as ID 57 (5' cholesterol; 3' idT; dT16,dT21; 2'-F other pyrimidines and a37,a38; 2'-OMe purines except ribo a4,a7,g30) plus PS between 29 and 30
Question: With B4 as the binder, how does the IC50 [4] read?
Answer: < 3 nM

B5: aptamer ID 57(4) (mixed)
mixed: GGGAUAAAAAUAGAGTUUGATAAACACCUGUAUUAAAACCC
modifications: as ID 57 (5' cholesterol; 3' idT; dT16,dT21; 2'-F other pyrimidines and a37,a38; 2'-OMe purines except ribo a4,a7,g30) plus PS between 20 and 21
Question: How did the IC50 [5] turn out when B5 was run?
Answer: < 3 nM

B6: aptamer ID 26(67) (ssRNA)
RNA: GGGAGACUCGCCAGAGUUGAAAGAAACCCAAAUAAGUGUGCGCAC
modifications: 5' PEG40TS2 via ssH linker; 3' idT; 2'-F all pyrimidines; 2'-OMe purines except ribo g3,g19,a20,a26
Question: For B6, which IC50 [6] is on record?
Answer: 0.153 nM

B7: aptamer ID 26(28) (mixed)
RNA: GGGAGACUCGCCAGAGUUGAAAGAAACCCAAAUAAGUGUGCGCAC
modifications: as 26(19) (5' and 3' idT; 2'-F pyrimidines; 2'-OMe purines except ribo g3,g19,a20,a26) but u33 is dT
Question: With B7 as the binder, how does the IC50 [7] read?
Answer: 0.2 nM

B8: aptamer ID 26(24) (mixed)
RNA: GGGAGACUCGCCAGAGUUGAAAGAAACCCAAAUAAGUGUGCGCAC
modifications: as 26(19) (5' and 3' idT; 2'-F pyrimidines; 2'-OMe purines except ribo g3,g19,a20,a26) but c11 is dC
Question: Which IC50 [8] does the source give for B8 here?
Answer: 0.226 nM

B9: aptamer ID 26(27) (mixed)
RNA: GGGAGACUCGCCAGAGUUGAAAGAAACCCAAAUAAGUGUGCGCAC
modifications: as 26(19) (5' and 3' idT; 2'-F pyrimidines; 2'-OMe purines except ribo g3,g19,a20,a26) but c29 is dC
Question: For B9, which IC50 [9] is on record?
Answer: 0.15 nM

B10: aptamer ID 26(26) (mixed)
RNA: GGGAGACUCGCCAGAGUUGAAAGAAACCCAAAUAAGUGUGCGCAC
modifications: as 26(19) (5' and 3' idT; 2'-F pyrimidines; 2'-OMe purines except ribo g3,g19,a20,a26) but u17 is dT
Question: How did the IC50 [10] turn out when B10 was run?
Answer: 0.285 nM

B11: aptamer ID 26(2) (ssRNA)
RNA: GGGAGACUCGCCAGAGUUGAAAGAAACCCAAAUAAGUGUGCGCAC
modifications: 5' and 3' idT; 2'-F all pyrimidines; 2'-OMe purines except ribo g3,g5,g19,a20,a21,a22,a24,a26
Question: With B11 as the binder, how does the IC50 (BDNF) read?
Answer: > 1000 nM

Question: And the IC50 (NT-4/5)?
Answer: > 300 nM

B12: aptamer ID 26(70) (ssRNA)
RNA: GGGAGACUCGCCAGAGUUGAAAGAAACCCAAAUAAGUGUGCGCAC
modifications: 5' PEG80TS4 via ssH linker; 3' idT; 2'-F all pyrimidines; 2'-OMe purines except ribo g3,g19,a20,a26
Question: B12 was tested. Which IC50 [11] did it give?
Answer: 0.126 nM

B13: aptamer ID 26(23) (mixed)
RNA: GGGAGACUCGCCAGAGUUGAAAGAAACCCAAAUAAGUGUGCGCAC
modifications: as 26(19) (5' and 3' idT; 2'-F pyrimidines; 2'-OMe purines except ribo g3,g19,a20,a26) but c9 is dC
Question: How did the IC50 [12] turn out when B13 was run?
Answer: 0.229 nM

B14: aptamer ID 26(25) (mixed)
RNA: GGGAGACUCGCCAGAGUUGAAAGAAACCCAAAUAAGUGUGCGCAC
modifications: as 26(19) (5' and 3' idT; 2'-F pyrimidines; 2'-OMe purines except ribo g3,g19,a20,a26) but c12 is dC
Question: With B14 as the binder, how does the IC50 [13] read?
Answer: 0.29 nM

B15: aptamer ID 26(29) (mixed)
RNA: GGGAGACUCGCCAGAGUUGAAAGAAACCCAAAUAAGUGUGCGCAC
modifications: as 26(19) (5' and 3' idT; 2'-F pyrimidines; 2'-OMe purines except ribo g3,g19,a20,a26) but u37 is dT
Question: Which IC50 [14] does the source give for B15 here?
Answer: 0.138 nM
